According to article PMC12357092, “Two stages of substrate discrimination dictate selectivity in the Escherichia coli MetNI-Q ABC transporter system” (The Journal of Biological Chemistry, 2025):

Tests used:
[1] = substrate: Nc1ncnc2c1ncn2[C@@H]1O[C@H](COP(=O)(O)OP(=O)(O)OP(=O)(O)O)[C@@H](O)[C@H]1O; experiment: purified protein; details: 500 nM MetNI in DDM, equimolar MgCl2 and ATP, 37 °C, no MetQ, no Met
[2] = molecular target: T1, E. coli MetNI transporter, N295A mutant (E. coli, UniProt P30750 1-343; P31547 1-217, N295A); experiment: cell-based or functional assay
T1 sequence (looked up) 1: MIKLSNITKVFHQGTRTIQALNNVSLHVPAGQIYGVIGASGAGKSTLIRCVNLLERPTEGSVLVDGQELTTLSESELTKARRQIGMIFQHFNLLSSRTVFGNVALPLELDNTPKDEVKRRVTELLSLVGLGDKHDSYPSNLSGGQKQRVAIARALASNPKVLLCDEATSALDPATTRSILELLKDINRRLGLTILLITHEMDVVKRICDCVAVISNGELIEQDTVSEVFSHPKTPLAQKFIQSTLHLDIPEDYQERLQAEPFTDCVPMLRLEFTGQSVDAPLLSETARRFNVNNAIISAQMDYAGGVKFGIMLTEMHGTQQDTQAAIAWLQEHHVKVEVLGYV
T1 sequence (looked up) 2: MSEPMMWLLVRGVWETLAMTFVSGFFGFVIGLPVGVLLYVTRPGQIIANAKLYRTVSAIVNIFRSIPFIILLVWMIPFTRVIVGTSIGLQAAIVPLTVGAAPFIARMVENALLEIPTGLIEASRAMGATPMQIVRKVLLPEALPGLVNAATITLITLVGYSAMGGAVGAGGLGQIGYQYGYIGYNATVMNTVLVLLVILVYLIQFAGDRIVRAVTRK

[3] = molecular target: T2, E. coli MetNI transporter, E166Q/N295A double mutant, detergent-solubilized (E. coli, UniProt P30750 1-343; P31547 1-217, E166Q | N295A); experiment: FP; unfolded-refolded N229A MetQ, ATP/EDTA
T2 sequence 1: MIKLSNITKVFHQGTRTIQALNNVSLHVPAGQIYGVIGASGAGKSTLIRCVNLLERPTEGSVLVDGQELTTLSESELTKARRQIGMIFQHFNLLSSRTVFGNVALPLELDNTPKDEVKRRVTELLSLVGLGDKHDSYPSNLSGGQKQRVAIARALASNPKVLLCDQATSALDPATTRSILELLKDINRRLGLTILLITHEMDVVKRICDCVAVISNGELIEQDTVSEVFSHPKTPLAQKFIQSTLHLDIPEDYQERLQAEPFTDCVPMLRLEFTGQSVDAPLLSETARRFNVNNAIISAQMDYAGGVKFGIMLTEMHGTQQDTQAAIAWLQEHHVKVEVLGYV
T2 sequence 2: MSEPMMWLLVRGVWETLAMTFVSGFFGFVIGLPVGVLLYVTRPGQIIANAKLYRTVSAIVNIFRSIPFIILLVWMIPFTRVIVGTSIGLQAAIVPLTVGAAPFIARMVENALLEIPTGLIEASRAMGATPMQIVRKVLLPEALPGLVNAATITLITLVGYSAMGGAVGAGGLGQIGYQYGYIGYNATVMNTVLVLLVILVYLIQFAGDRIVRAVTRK

[4] = molecular target: T3, E. coli MetNI transporter, E166Q/N295A double mutant, detergent-solubilized (E. coli, UniProt P30750 1-343; P31547 1-217, E166Q | N295A); experiment: fluorescence polarisation; 20 nM fluorescein-labelled MetQ held constant, detergent-solubilized E166Q/N295A MetNI 0-10 uM; ATP-bound state mimicked with 5 mM ATP and 10 mM EDTA; no methionine added (unfolded-refolded WT MetQ or native N229A); 57.5 mM Tris pH 7.5, 10 mM TAPS pH 8.5, 150 mM NaCl, 1.5 mM bME, 0.05% DDM; single-site binding model; details: both partners purified
T3 construct: MetI, the transmembrane (permease) subunit of the E. coli methionine ABC importer MetNI; also called E166Q/N295A MetNI; source: purified, detergent-solubilized (DDM); copies: 2 + 2
T3 sequence (looked up) 1: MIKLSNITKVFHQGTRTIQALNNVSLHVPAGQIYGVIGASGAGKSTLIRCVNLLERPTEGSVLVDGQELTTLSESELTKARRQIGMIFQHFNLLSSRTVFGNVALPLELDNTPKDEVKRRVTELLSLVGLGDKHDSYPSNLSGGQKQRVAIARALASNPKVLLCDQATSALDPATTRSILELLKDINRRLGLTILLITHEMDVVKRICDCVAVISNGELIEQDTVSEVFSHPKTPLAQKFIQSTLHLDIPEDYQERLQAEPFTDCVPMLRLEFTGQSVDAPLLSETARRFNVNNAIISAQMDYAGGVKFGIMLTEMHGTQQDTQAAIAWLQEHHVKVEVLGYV
T3 sequence (looked up) 2: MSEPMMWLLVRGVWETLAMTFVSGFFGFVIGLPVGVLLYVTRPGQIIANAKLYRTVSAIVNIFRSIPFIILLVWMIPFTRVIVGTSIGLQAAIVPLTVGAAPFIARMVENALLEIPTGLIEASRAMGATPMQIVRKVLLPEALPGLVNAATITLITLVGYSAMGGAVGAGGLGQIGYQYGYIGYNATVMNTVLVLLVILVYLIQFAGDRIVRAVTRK

[5] = molecular target: T3, E. coli MetNI transporter, E166Q/N295A …; experiment: fluorescence polarisation; as a1 (5 mM ATP and 10 mM EDTA), unfolded-refolded WT MetQ with exogenous 100 uM D-Met; details: both partners purified
[6] = molecular target: T3, E. coli MetNI transporter, E166Q/N295A …; experiment: fluorescence polarisation; as a1 (5 mM ATP and 10 mM EDTA), unfolded-refolded WT MetQ with exogenous 100 uM L-Met; details: both partners purified
[7] = molecular target: T3, E. coli MetNI transporter, E166Q/N295A …; experiment: fluorescence polarisation; control: native WT MetQ (co-purifies with L-Met, not unfolded-refolded) with detergent-solubilized E166Q/N295A MetNI; details: both partners purified

B1: MetNI (Escherichia coli K-12) (protein)
chain: MIKLSNITKVFHQGTRTIQALNNVSLHVPAGQIYGVIGASGAGKSTLIRCVNLLERPTEGSVLVDGQELTTLSESELTKARRQIGMIFQHFNLLSSRTVFGNVALPLELDNTPKDEVKRRVTELLSLVGLGDKHDSYPSNLSGGQKQRVAIARALASNPKVLLCDEATSALDPATTRSILELLKDINRRLGLTILLITHEMDVVKRICDCVAVISNGELIEQDTVSEVFSHPKTPLAQKFIQSTLHLDIPEDYQERLQAEPFTDCVPMLRLEFTGQSVDAPLLSETARRFNVNNNIISAQMDYAGGVKFGIMLTEMHGTQQDTQAAIAWLQEHHVKVEVLGYV
[1]
  Km: 800 ± 100 µM
  kcat: 24 ± 4 min⁻¹

B2: MetNI (Escherichia coli K-12; N295A) (protein)
chain: MIKLSNITKVFHQGTRTIQALNNVSLHVPAGQIYGVIGASGAGKSTLIRCVNLLERPTEGSVLVDGQELTTLSESELTKARRQIGMIFQHFNLLSSRTVFGNVALPLELDNTPKDEVKRRVTELLSLVGLGDKHDSYPSNLSGGQKQRVAIARALASNPKVLLCDEATSALDPATTRSILELLKDINRRLGLTILLITHEMDVVKRICDCVAVISNGELIEQDTVSEVFSHPKTPLAQKFIQSTLHLDIPEDYQERLQAEPFTDCVPMLRLEFTGQSVDAPLLSETARRFNVNNAIISAQMDYAGGVKFGIMLTEMHGTQQDTQAAIAWLQEHHVKVEVLGYV
[1]
  Km: 812 ± 4 µM
  kcat: 24 ± 4 min⁻¹

B3: E. coli MetQ N229A, secreted (non-lipidated), C-terminal 6x-histidine tag (natural protein, UniProt P28635 23-271, looked up)
chain: CGQDEKDPNHIKVGVIVGAEQQVAEVAQKVAKDKYGLDVELVTFNDYVLPNEALSKGDIDANAFQHKPYLDQQLKDRGYKLVAVGNTFVYPIAGYSKKIKSLDELQDGSQVAVPNDPTNLGRSLLLLQKVGLIKLKDGVGLLPTVLDVVENPKNLKIVELEAPQLPRSLDDAQIALAVINTTYASQIGLTPAKDGIFVEDKESPYVALIVTREDNKDAENVKKFVQAYQSDEVYEAANKVFNGGAVKGW
modifications: fluorescein 5-maleimide on the single native cysteine at position 23 (anisotropy experiments)
notes: secreted non-lipidated form isolated from the periplasmic extract; The protein is unlabelled in the ATPase assays; also called N229A MetQ; native N229A; source: E. coli BL21 (DE3) Gold, periplasmic extract, purified (HisTrap, Superdex 200); not shown: His6, C-terminal, kept
[2]
  kcat of MetQ-stimulated ATPase activity of detergent-solubilized N295A MetNI, 5 mM MgATP, native N229A MetQ 0-50 μM: 267 min⁻¹
[3]
  Kd: 113 nM
[4]
  Kd: 300 nM

B4: E. coli MetQ substrate-binding protein, wild type, secreted (non-lipidated), C-terminal 6x-histidine tag (natural protein, UniProt P28635 23-271, looked up)
chain: CGQDEKDPNHIKVGVIVGAEQQVAEVAQKVAKDKYGLDVELVTFNDYVLPNEALSKGDIDANAFQHKPYLDQQLKDRGYKLVAVGNTFVYPIAGYSKKIKSLDELQDGSQVAVPNDPTNLGRSLLLLQKVGLIKLKDGVGLLPTVLDVVENPKNLKIVELEAPQLPRSLDDAQIALAVINTTYASQIGLTPAKDGIFVEDKESPYVNLIVTREDNKDAENVKKFVQAYQSDEVYEAANKVFNGGAVKGW
modifications: fluorescein 5-maleimide on the single native cysteine at position 23 (anisotropy experiments)
notes: secreted non-lipidated form isolated from the periplasmic extract; Cys23 is present; WT(apo), WT(LM) and WT(DM) are the same protein without methionine, with 100 uM L-Met or with 100 uM D-Met; native WT co-purifies with L-Met; The protein is unlabelled in the ATPase assays; also called WT MetQ; WT(apo); source: E. coli BL21 (DE3) Gold, periplasmic extract, purified (HisTrap, Superdex 200); not …
[2]
  kcat of MetQ-stimulated ATPase activity of detergent-solubilized N295A MetNI, 5 mM MgATP, WT(DM) MetQ 0-50 μM with 100 μM D-Met: 110 min⁻¹
  kcat of MetQ-stimulated ATPase activity of detergent-solubilized N295A MetNI, 5 mM MgATP, WT(LM) MetQ 0-50 μM with 100 μM L-Met: 60 min⁻¹
  kcat of MetQ-stimulated ATPase activity of detergent-solubilized N295A MetNI, 5 mM MgATP, WT(apo) MetQ 0-50 μM: 240 min⁻¹
[5]
  Kd: 800 nM
[6]
  Kd: 5 µM
[7]
  Kd: 8 ± 2 µM
[4]
  Kd: 400 nM
